# According to the Human Domainome abundance scans (Beltran et al. 2025):
# ± gives the uncertainty stated by the source.
# B1: Chromodomain-helicase-DNA-binding protein 7, residues 2564 to 2605; numbered along this chain, Q9P2D1 (parent)
# chain: DPDTRIPVINLEDGTRLVGEDAPKNKDLVEWLKLHPTYTVDM
# Variants of: B1
# Test: abundance fitness (aPCA) (normalised: wild type 0, dead -1); higher = more abundant; growth selection in yeast, the domain comes from the species named
# Details: Homo sapiens
row,Variant,abundance fitness
1,DPDTRIPVINLEDGTRLVGLDAPKNKDLVEWLKLHPTYTVDM [E20L],-0.369 ± 0.088
2,DPDTRIPVINLEDGTRLVGGDAPKNKDLVEWLKLHPTYTVDM [E20G],-0.196 ± 0.049
3,DPDTRIPVINLEDGTRLVGVDAPKNKDLVEWLKLHPTYTVDM [E20V],-0.195 ± 0.049
4,DPDTRIPVINLEDGTRLVGEDEPKNKDLVEWLKLHPTYTVDM [A22E],-0.839 ± 0.14
5,DPDTRIPVINLEDGTRLVGEDDPKNKDLVEWLKLHPTYTVDM [A22D],-0.565 ± 0.081
6,DPDTRIPVINLEDGTRLVGEDIPKNKDLVEWLKLHPTYTVDM [A22I],-0.483 ± 0.076
7,DPDTRIPVINLEDGTRLVGEDLPKNKDLVEWLKLHPTYTVDM [A22L],-0.539 ± 0.071
8,DPDTRIPVINLEDGTRLVGEDMPKNKDLVEWLKLHPTYTVDM [A22M],-0.673 ± 0.14
9,DPDTRIPVINLEDGTRLVGEDNPKNKDLVEWLKLHPTYTVDM [A22N],-0.519 ± 0.062
10,DPDTRIPVINLEDGTRLVGEDPPKNKDLVEWLKLHPTYTVDM [A22P],-0.622 ± 0.11
11,DPDTRIPVINLEDGTRLVGEDRPKNKDLVEWLKLHPTYTVDM [A22R],-0.477 ± 0.052
12,DPDTRIPVINLEDGTRLVGEDHPKNKDLVEWLKLHPTYTVDM [A22H],-0.306 ± 0.26
13,DPDTRIPVINLEDGTRLVGEDFPKNKDLVEWLKLHPTYTVDM [A22F],-0.466 ± 0.34
14,DPDTRIPVINLEDGTRLVGEDCPKNKDLVEWLKLHPTYTVDM [A22C],-0.168 ± 0.057
15,DPDTRIPVINLEDGTRLKGEDAPKNKDLVEWLKLHPTYTVDM [V18K],-0.154 ± 0.16
16,DPDTRIPVINLEDGTRLWGEDAPKNKDLVEWLKLHPTYTVDM [V18W],-0.132 ± 0.053
17,DPDTRIPVINLEDGTRLTGEDAPKNKDLVEWLKLHPTYTVDM [V18T],0.118 ± 0.095
18,DPDTRIPVINLEDGTRLFGEDAPKNKDLVEWLKLHPTYTVDM [V18F],-0.165 ± 0.079
19,DPDTRIPVINLEDGTRLLGEDAPKNKDLVEWLKLHPTYTVDM [V18L],-0.131 ± 0.071
20,DPDTRIPVINLEDGTRLDGEDAPKNKDLVEWLKLHPTYTVDM [V18D],0.147 ± 0.072

row,Variant,abundance fitness
1,DPDTRIPVINLEDGTRLEGEDAPKNKDLVEWLKLHPTYTVDM [V18E],0.039 ± 0.068
2,DPDTRIPVINLEDGTRLQGEDAPKNKDLVEWLKLHPTYTVDM [V18Q],0.108 ± 0.087
3,DPDTRIPVINLEDGTRLGGEDAPKNKDLVEWLKLHPTYTVDM [V18G],-0.04 ± 0.059
4,DPDTRIPVINLEDGTRLRGEDAPKNKDLVEWLKLHPTYTVDM [V18R],-0.081 ± 0.055
5,DPDTRIPVINLEDGTRLSGEDAPKNKDLVEWLKLHPTYTVDM [V18S],0.076 ± 0.073
6,DPDTRIPVINLEDGTRLPGEDAPKNKDLVEWLKLHPTYTVDM [V18P],-0.372 ± 0.11
7,DPDTRIPVINLEDGTRLMGEDAPKNKDLVEWLKLHPTYTVDM [V18M],0.091 ± 0.062
8,DPDTRIPVINLEDGTRLHGEDAPKNKDLVEWLKLHPTYTVDM [V18H],-0.047 ± 0.069
9,DPDTRIPVINLEDGTRLYGEDAPKNKDLVEWLKLHPTYTVDM [V18Y],-0.065 ± 0.078
10,DPDTRIPVINLEDGTRLCGEDAPKNKDLVEWLKLHPTYTVDM [V18C],0.074 ± 0.076
11,DPDTRIPVINLEDGTRLNGEDAPKNKDLVEWLKLHPTYTVDM [V18N],-0.06 ± 0.063
12,DPDTRIPVINLEDGTRLIGEDAPKNKDLVEWLKLHPTYTVDM [V18I],0.155 ± 0.079
13,DPDTRIPVINLEDGMRLVGEDAPKNKDLVEWLKLHPTYTVDM [T15M],-0.264 ± 0.15
14,DPDTRIPVINLEDGHRLVGEDAPKNKDLVEWLKLHPTYTVDM [T15H],-0.128 ± 0.19
15,DPDTRIPVINLEDGGRLVGEDAPKNKDLVEWLKLHPTYTVDM [T15G],0.081 ± 0.053
16,DPDTRIPVINLEDGKRLVGEDAPKNKDLVEWLKLHPTYTVDM [T15K],0.051 ± 0.21
17,DPDTRIPVINLEDGVRLVGEDAPKNKDLVEWLKLHPTYTVDM [T15V],0.023 ± 0.068
18,DPDTRIPVINLEDGFRLVGEDAPKNKDLVEWLKLHPTYTVDM [T15F],-0.218 ± 0.087
19,DPDTRIPVINLEDGNRLVGEDAPKNKDLVEWLKLHPTYTVDM [T15N],0.117 ± 0.07
20,DPDTRIPVINLEDGPRLVGEDAPKNKDLVEWLKLHPTYTVDM [T15P],-0.252 ± 0.16

row,Variant,abundance fitness
1,DPDTRIPVINLEDGRRLVGEDAPKNKDLVEWLKLHPTYTVDM [T15R],0.064 ± 0.1
2,DPDTRIPVINLEDGLRLVGEDAPKNKDLVEWLKLHPTYTVDM [T15L],-0.055 ± 0.083
3,DPDTRIPVINLEDGTRLVGEQAPKNKDLVEWLKLHPTYTVDM [D21Q],-0.018 ± 0.17
4,DPDTRIPVINLEDGTRLVGECAPKNKDLVEWLKLHPTYTVDM [D21C],-0.07 ± 0.091
5,DPDTRIPVINLEDGTRLVGEHAPKNKDLVEWLKLHPTYTVDM [D21H],-0.109 ± 0.079
6,DPDTRIPVINLEDGTRLVGEEAPKNKDLVEWLKLHPTYTVDM [D21E],-0.207 ± 0.11
7,DPDTRIPVINLEDGTRLVGESAPKNKDLVEWLKLHPTYTVDM [D21S],-0.093 ± 0.076
8,DPDTRIPVINLEDGTRLVGELAPKNKDLVEWLKLHPTYTVDM [D21L],-0.161 ± 0.075
9,DPDTRIPVINLEDGTRLVGEAAPKNKDLVEWLKLHPTYTVDM [D21A],-0.279 ± 0.093
10,DPDTRIPVINLEDGTRLVGEYAPKNKDLVEWLKLHPTYTVDM [D21Y],-0.165 ± 0.06
11,DPDTRIPVINLEDGTRLVGEVAPKNKDLVEWLKLHPTYTVDM [D21V],-0.508 ± 0.063
12,DPDTRIPVINLEDGTRLVGEMAPKNKDLVEWLKLHPTYTVDM [D21M],-0.161 ± 0.078
13,DPDTRIPVINLEDGTRLVGEKAPKNKDLVEWLKLHPTYTVDM [D21K],-0.134 ± 0.068
14,DPDTRIPVINLEDGTRLVGEFAPKNKDLVEWLKLHPTYTVDM [D21F],-0.17 ± 0.073
15,DPDTRIPVINLEDGTRLVGENAPKNKDLVEWLKLHPTYTVDM [D21N],-0.054 ± 0.067
16,DPDTRIPVINLEDGTRLVGEWAPKNKDLVEWLKLHPTYTVDM [D21W],-0.442 ± 0.17
17,DPDTRIPVINLEDGTRLVGETAPKNKDLVEWLKLHPTYTVDM [D21T],-0.246 ± 0.12
18,DPDTRIPVINLEDGTRLVGERAPKNKDLVEWLKLHPTYTVDM [D21R],-0.316 ± 0.065
19,DPDTRIPVINLEDGTRLVGEPAPKNKDLVEWLKLHPTYTVDM [D21P],-0.378 ± 0.15
20,DPDTRIPVINLEDGTRLVGEIAPKNKDLVEWLKLHPTYTVDM [D21I],-0.512 ± 0.12
